This is an account of results in patent publication US20090291081A1 (AbbVie / Abbott, published 2009).

As a reminder, the IC50 is the midpoint of a concentration-inhibition curve. High values mean weaker potency in that assay, low ones greater potency in that assay.

The labels stand for the following.
T1: human IL-1α (human, UniProt P01583 113-271)
T1 construct: also called IL-1alpha; hIL-1α
T1 sequence (looked up): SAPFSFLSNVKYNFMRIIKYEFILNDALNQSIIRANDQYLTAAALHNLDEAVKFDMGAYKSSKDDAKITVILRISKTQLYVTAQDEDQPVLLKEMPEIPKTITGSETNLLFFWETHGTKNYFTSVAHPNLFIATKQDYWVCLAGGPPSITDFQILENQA

B1: ABT1-95-98 (other)
VL: DIQMTQSPSSLSASVGDRVTITCRASQPIVRNLRWYQQKPGKAPKLLIYSSSALEPGVPSRFSGSGSGTDFTLTISSLQPEDFATYHCQQGYRWPVTFGQGTKVEIKR
notes: VK dAb
B2: ABT1-95-140 (other)
VL: B1 VL with P28G, A53Y
notes: VK dAb
B3: ABT1-95-141 (other)
VL: B1 VL with V30L, A53Y
notes: VK dAb
B4: ABT1-95-124 (other)
VL: B1 VL with A53Y, R93M
notes: VK dAb
B5: ABT1-95-120 (other)
VL: B1 VL with V30A, A53Y, G91V
notes: VK dAb
B6: ABT1-95-145 (other)
VL: B1 VL with R18H, A53Y, E55V
notes: VK dAb
B7: ABT1-95-130 (other)
VL: B1 VL with A53Y, H87Y, R93L
notes: VK dAb
B8: ABT1-95-101 (other)
VL: B1 VL with I48V, A53L
notes: VK dAb
B9: ABT1-95-129 (other)
VL: B1 VL with A53Y, Q79H, F83L
notes: VK dAb
B10: ABT1-95-125 (other)
VL: B1 VL with A53Y, V96L
notes: VK dAb
B11: ABT1-95-114 (other)
VL: B1 VL with A53Y, P56V
notes: VK dAb
B12: ABT1-95-123 (other)
VL: B1 VL with A53Y, R93A
notes: VK dAb
B13: ABT1-95-106 (other)
VL: B1 VL with A53Y, P56R, T97A
notes: VK dAb
B14: ABT1-95-126 (other)
VL: B1 VL with A53Y, V96S
notes: VK dAb
B15: ABT1-95-142 (other)
VL: B1 VL with V30T, A53Y
notes: VK dAb
B16: ABT1-95-111 (other)
VL: B1 VL with A53Y, P56D
notes: VK dAb
B17: ABT1-95-110 (other)
VL: B1 VL with A53Y, P56A
notes: VK dAb
B18: ABT1-95-128 (other)
VL: B1 VL with A53Y, V96G
notes: VK dAb
B19: ABT1-95-108 (other)
VL: B1 VL with A53Y, P56E
notes: VK dAb
B20: ABT1-95-127 (other)
VL: B1 VL with A53Y, S76G, V96I
notes: VK dAb
B21: ABT1-95-112 (other)
VL: B1 VL with A53Y, P56N
notes: VK dAb
B22: ABT1-95-143 (other)
VL: B1 VL with Y49T, A53Y
notes: VK dAb
B23: ABT1-95-144 (other)
VL: B1 VL with A53Y, E55S
notes: VK dAb

Residue numbers refer to the chain shown, from its start.

The experiment concerns the target T1, human IL-1α. In words: Table 62 IC50; RBA presumed.
As to B1, the IC50 came to 0.8 nM.

B2 displayed an IC50 of 0.2 nM. As for B3, the figure is 1 nM; as for B4, 0.2 nM. As for B5, the figure is 0.1 nM; as for B6, 0.8 nM; as for B7, more than 1 nM. Next, B8: 0.5 nM; B9: more than 10 nM; B10: 0.2 nM.

As to B11, 0.2 nM corresponded to half-maximal inhibition (IC50). On to B12, for which the IC50 came to 0.1 nM. As for B13, the figure is 0.1 nM. Next, B14: 0.8 nM. Molecule B15 registered an IC50 of 0.5 nM. B16: the IC50 is less than 0.1 nM. Next, B17: 0.1 nM. As for B18, the figure is more than 1 nM; as for B19, 0.5 nM. Take B20: the midpoint of inhibition, the IC50, lay at 0.1 nM. On to B21, for which the IC50 was 0.1 nM. In other words, the sub-nanomolar range. As to B22, the IC50 was 10 nM. Molecule B23 registered an IC50 of 0.5 nM.
